According to US20250011363A1, “OPTIMIZED SHORTENED PEPTIDE THAT BINDS TO ACETYLCHOLINE RECEPTOR, AND USE THEREOF” (SKINMED CO., LTD., priority 2021, published 2025):

B1: 6mer-1-94 (peptide)
peptide: RKVQQK
B2: 6mer-1-81 (peptide)
peptide: RRWQLR
B3: 6mer-1-112 (peptide)
peptide: KKWVCR
B4: 6mer-1-87 (peptide)
peptide: KKQVYK
B5: 6mer-1-79 (peptide)
peptide: KRLFCK
B6: 6mer-1-76 (peptide)
peptide: RRLQLK
B7: 6mer-1-85 (peptide)
peptide: RKRQCK
B8: 6mer-1-99 (peptide)
peptide: RKVVYR
B9: 6mer-1-75 (peptide)
peptide: RRQYQK
B10: 6mer-1-89 (peptide)
peptide: RKQRCK
B11: 6mer-1-108 (peptide)
peptide: RRLLLR
B12: 6mer-1-88 (peptide)
peptide: KRWICK
B13: 6mer-1-72 (peptide)
peptide: RKVQLK
B14: 6mer-1-71 (peptide)
peptide: KRWFYK
B15: 6mer-1-103 (peptide)
peptide: RKRICK
B16: 6mer-1-90 (peptide)
peptide: KKGISK
B17: 6mer-1-110 (peptide)
peptide: KRQLLK
B18: 6mer-1-102 (peptide)
peptide: RRRYRR
B19: 6mer-1-82 (peptide)
peptide: KKVLYR
B20: 6mer-1-91 (peptide)
peptide: RKQQCK
B21: 6mer-1-73 (peptide)
peptide: KKQQQR
B22: 6mer-1-74 (peptide)
peptide: KKVRLR
B23: 6mer-1-86 (peptide)
peptide: KKWRQK
B24: 6mer-1-70 (peptide)
peptide: KKLLYR
B25: 6mer-1-109 (peptide)
peptide: KKRYLR
B26: 6mer-1-84 (peptide)
peptide: RRGQTK
B27: 6mer-1-97 (peptide)
peptide: KKVYLR
B28: 6mer-1-77 (peptide)
peptide: KKQLRR
B29: 6mer-1-69 (peptide)
peptide: RKVRRR
B30: 6mer-1-105 (peptide)
peptide: KKSISK
B31: 6mer-1-113 (peptide)
peptide: KRGVQK
B32: 6mer-1-100 (peptide)
peptide: RKWISK
B33: 6mer-1-98 (peptide)
peptide: KRLQCR
B34: 6mer-1-107 (peptide)
peptide: KKQRSR
B35: 6mer-1-101 (peptide)
peptide: KRWLYR
B36: 6mer-1-104 (peptide)
peptide: KRGFSK
B37: 6mer-1-78 (peptide)
peptide: KKRVSK
B38: 6mer-1-80 (peptide)
peptide: KRVQQR
B39: 6mer-1-106 (peptide)
peptide: KRGQLK
B40: 6mer-1-83 (peptide)
peptide: RRSFLR
B41: 6mer-1-111 (peptide)
peptide: RKVICR
B42: 6mer-1-96 (peptide)
peptide: KRGVRK
B43: 6mer-1-92 (peptide)
peptide: RRWRLK
B44: 6mer-1-93 (peptide)
peptide: KRWIRR
B45: 6mer-1-95 (peptide)
peptide: KKWQTK
B46: 5mer-588 (peptide)
peptide: RSFTR
B47: 5mer-585 (peptide)
peptide: RSVSK
B48: 5mer-298 (peptide)
peptide: KSIYR
B49: 5mer-586 (peptide)
peptide: KGRRR
B50: 5mer-595 (peptide)
peptide: KWQQR
B51: 5mer-283 (peptide)
peptide: KWVYK
B52: 5mer-287 (peptide)
peptide: KRYRR
B53: 5mer-592 (peptide)
peptide: RWLCR
B54: 5mer-289 (peptide)
peptide: RRQYR
B55: 5mer-591 (peptide)
peptide: RVYTK
B56: 5mer-587 (peptide)
peptide: RVITR
B57: 5mer-292 (peptide)
peptide: KLVCK
B58: 5mer-598 (peptide)
peptide: RVRSK
B59: 5mer-593 (peptide)
peptide: KQYLK
B60: 5mer-290 (peptide)
peptide: RGYYR
B61: 5mer-293 (peptide)
peptide: RQYYR
B62: 5mer-583 (peptide)
peptide: KVVYR
B63: 5mer-286 (peptide)
peptide: RWFQK
B64: 5mer-291 (peptide)
peptide: RWFTR
B65: 5mer-582 (peptide)
peptide: RGICK
B66: 5mer-594 (peptide)
peptide: KQYSR
B67: 5mer-597 (peptide)
peptide: KLVSR
B68: 5mer-284 (peptide)
peptide: KQVQR
B69: 5mer-285 (peptide)
peptide: KGQLK
B70: 5mer-294 (peptide)
peptide: KQYYK
B71: 5mer-296 (peptide)
peptide: KWISK
B72: 5mer-584 (peptide)
peptide: KQIQK
B73: 5mer-288 (peptide)
peptide: KLILK
B74: 5mer-589 (peptide)
peptide: KGLCR
B75: 5mer-596 (peptide)
peptide: KLQQR
B76: 5mer-297 (peptide)
peptide: RSLRK
B77: 5mer-295 (peptide)
peptide: RGRCR
B78: 5mer-590 (peptide)
peptide: KQYTK

target: acetylcholine receptor; test: SPR, receptor on CM5 chip, peptide 10 µM

| Binding affinity (RU) | Binder |
| --- | --- |
| 142 | B1 |
| 148 | B2 |
| 148 | B3 |
| 139 | B4 |
| 137 | B5 |
| 126 | B6 |
| 121 | B7 |
| 136 | B8 |
| 139 | B9 |
| 142 | B10 |
| 139 | B11 |
| 121 | B12 |
| 139 | B13 |
| 121 | B14 |
| 122 | B15 |
| 125 | B16 |
| 121 | B17 |
| 127 | B18 |
| 123 | B19 |
| 131 | B20 |
| 142 | B21 |
| 142 | B22 |
| 142 | B23 |

| Binding affinity (RU) | Binder |
| --- | --- |
| 139 | B24 |
| 148 | B25 |
| 142 | B26 |
| 139 | B27 |
| 149 | B28 |
| 142 | B29 |
| 141 | B30 |
| 148 | B31 |
| 146 | B32 |
| 154 | B33 |
| 131 | B34 |
| 142 | B35 |
| 121 | B36 |
| 145 | B37 |
| 133 | B38 |
| 149 | B39 |
| 146 | B40 |
| 144 | B41 |
| 125 | B42 |
| 153 | B43 |
| 136 | B44 |
| 142 | B45 |

target: acetylcholine receptor; test: SPR, AchR immobilised on chip, peptide at 10 uM

| Binding affinity (RU) | Binder |
| --- | --- |
| 60 | B46 |
| 74 | B47 |
| 75 | B48 |
| 78 | B49 |
| 58 | B50 |
| 51 | B51 |
| 68 | B52 |
| 56 | B53 |
| 87 | B54 |
| 61 | B55 |
| 66 | B56 |
| 59 | B57 |
| 84 | B58 |
| 77 | B59 |
| 57 | B60 |
| 83 | B61 |
| 75 | B62 |

| Binding affinity (RU) | Binder |
| --- | --- |
| 71 | B63 |
| 72 | B64 |
| 82 | B65 |
| 50 | B66 |
| 68 | B67 |
| 52 | B68 |
| 75 | B69 |
| 50 | B70 |
| 55 | B71 |
| 76 | B72 |
| 73 | B73 |
| 58 | B74 |
| 56 | B75 |
| 81 | B76 |
| 52 | B77 |
| 81 | B78 |
